Measured values as given in patent publication US20240002516A1 (4B TECHNOLOGIES SUZHOU, published 2024).
Like-named read-outs stand apart in the source and are kept apart here.

Assays:
[1] = biological target: T1, human TrkA on CellSensor TrkA-NFAT-bla CHO-K1 cells (human, UniProt P04629 33-796); assay: FACS on cells expressing human TrkA (FIG. 5A)
T1 construct: whole, on cells; Bought cell line; also called cells overexpressing human TrkA

[2] = biological target: T2, extracellular domain (ECD) of human TrkA protein, N-terminal flag tag and C-terminal His tag (PHA) (human, UniProt P04629 33-423); assay: BLI (Octet Red384), antibody captured on anti-human Fc AHQ tips, antigen 100 nM
T2 construct: Made in 293-F cells and purified by IMAC; also called TrkA ECD protein; TrkA (ECD); not shown: flag tag at the N-terminus (after the signal peptide); His tag at the C-terminus
Description: (§1) The bio-layer interferometry (BLI) method was used to determine the affinities of the antibodies, employing Octet Red384. Briefly, anti-human Fc-coated biosensor AHQ tips (ForteBio) were put into PBS with 0.1% w/v bovine serum albumin and 0.05% Tween-20 for a minimum of 10 min in the pre-wetting plate. The purified antibodies (100 nM in PBS with 0.1% bovine serum albumin and 0.05% Tween-20 (assay buffer)) were captured on AHQ biosensors (ForteBio) at a level of about 1 nm. The loaded biosensors were washed with an assay buffer to remove any unbound protein. Then, the association rates, dissociation rates and response were measured, using an antigen of 100 nM (in PBS with 0.1% bovine serum albumin and 0.05% Tween-20).

[3] = biological target: T1, human TrkA on CellSensor TrkA-NFAT-bla …; assay: cell-based or functional assay
[4] = biological target: T1, human TrkA on CellSensor TrkA-NFAT-bla …; assay: cell-based or functional assay; remark: listed apart in the source
[5] = biological target: T1, human TrkA on CellSensor TrkA-NFAT-bla …; assay: cell-based or functional assay; remark: listed apart in the source
[6] = biological target: T2, extracellular domain (ECD) of human …; assay: affinity after affinity maturation; method not stated in Example 5
[7] = biological target: T1, human TrkA on CellSensor TrkA-NFAT-bla …; assay: FACS on cells expressing human TrkA (FIG. 4A)
[8] = biological target: T1, human TrkA on CellSensor TrkA-NFAT-bla …; assay: cell-based or functional assay; remark: listed apart in the source
[9] = biological target: T2, extracellular domain (ECD) of human …; assay: BLI (Octet Red384), as in Example 4
Description: as §1
Two rounds of humanizations were further performed. […] In the second round, many other variants were further constructed (including several mutations in the CDR sequences). Quickchange based site-directed mutagenesis or overlap PCR were performed to create expression plasmid of new versions of 2nd round humanized antibodies. All recombinant antibodies were expressed and purified as described in Example 1, then measured antigen binding affinity using BLI technology with the Octet Red384 instrument as mentioned above. To compare the functional activity of humanized antibodies with chimeric antibodies, NFAT assay was also performed.

[10] = biological target: T2, extracellular domain (ECD) of human …; assay: SPR (BIAcore T200), antibody on protein G chip, PHA 0.625-20 nM injected
Description: The binding kinetics and affinities of the humanized antibodies were determined using a BIAcoreT200™ SPR system. Approximately 30 RU of the humanized antibody was immobilized on a protein G sensor chip and serial 2-fold dilutions of the PHA (0.625-20 nM) in 1×HBS-EP+ buffer were injected over the antibody-bound surface at a flow rate of 30 μl/min.

[11] = biological target: T2, extracellular domain (ECD) of human …; assay: indirect ELISA on coated PHA (human TrkA ECD, 1 ug/mL), anti-mouse IgG-HRP, OD450
Description: Hybridoma supernatants were initially screened with human TrkA by indirect ELISA. Briefly, purified PHA was diluted to a final concentration of 1 μg/mL in PBS buffer. 100 μL of the diluted antigen was added to each well of a 96-well plate, and incubated at 4° C. overnight. The plates were washed with PBST (PBS comprising 0.05% Tween-20, pH 7.4) for three times, then 200 μl/well of 2% bovine serum albumin (BSA) diluted in PBST was added and incubated at room temperature for 2 hours for blocking. The blocking solution was removed, and the plate was washed 3 times with 300 μl PBST. The diluted solutions of primary and secondary antibodies, along with substrate solution was prepared. 100 μl of diluted primary antibody was pipetted in each well and was incubated for 1 hour at room temperature. The content in the wells was removed and washed for 3 times with 300 μl PBST buffer. PBS was removed from the plates. 100 μl of diluted Peroxidase-AffiniPure Goat Anti-Mouse IgG was added in each well and incubated for 1 hour at 37° C. The content in the wells was removed and the wells were washed for 3 times with 300 μl PBST. 100 μl of TMB substrate solution was added to the wells. After sufficient color development, 100 μl of stop solution was added to the wells to terminate the reaction. Read the absorbance (OD: 450) of each well with a microplate reader and the data were analyzed.

[12] = biological target: T1, human TrkA on CellSensor TrkA-NFAT-bla …; assay: FACS on CellSensor TrkA-NFAT-bla CHO-K1 cells (human TrkA), APC goat anti-mouse IgG
Description: (§2) The ELISA-positive antibody producing clones were further verified by fluorescence-activated cell sorting (FACS) using a conventional method. Briefly, CellSensor® TrkA-NFAT-bla CHO-K1 cells (cells overexpressing human TrkA) were stained with anti-TrkA antibody in U-bottom 96-well plates. The cells were resuspended to 2×10⁶ cells/ml in ice cold PBS. The diluted solutions of primary and secondary antibodies were prepared, and 100 μl of the diluted primary antibody was added in each well, and incubated for 1 hours at 4° C. in the dark. The cells were washed for 2 times by centrifugation at 2500 rpm for 3 min and resuspended in ice cold PBS. The APC Goat anti-Mouse IgG was diluted in cold PBS at the […] and then the cells were resuspended in 100 μl of this solution. The cells were washed for 2 times by centrifugation at 2500 rpm for 3 min and resuspended in 100 μl ice cold PBS. The cell suspension was stored immediately at 4° C. in the dark. The cells were analyzed on the flow cytometer as soon as possible.

[13] = biological target: T1, human TrkA on CellSensor TrkA-NFAT-bla …; assay: FACS on CellSensor TrkA-NFAT-bla CHO-K1 cells (human TrkA), APC goat anti-mouse IgG; y axis without label
Description: as §2

[14] = biological target: T2, extracellular domain (ECD) of human …; assay: BLI (Octet Red384), His-tagged TrkA ECD captured on Anti-Penta-HIS (HIS1K) biosensor, pAb01 as second antibody (90 s) after PHD48
Description: A bio-layer interferometry (BLI) method-based competition assay was performed on Octet Red384. Briefly, Anti-Penta-HIS (HIS1K) Biosensor (Fortebio) was put in PBS with 0.1% w/v bovine serum albumin and 0.05% Tween-20 (assay buffer) for a minimum of 10 min in the pre-wetting plate. The TrKA ECD protein at 100 nM in assay buffer was captured on the sensor to obtain a capture level of 0.3˜1 nm. The loaded biosensors were then equilibrated with an assay buffer for a minimum of 30s followed by binding of the first antibody for 90s. After the second equilibration, the second antibody was loaded for 90s.

T1 sequence (P04629 33-796 limits assumed, form in doubt): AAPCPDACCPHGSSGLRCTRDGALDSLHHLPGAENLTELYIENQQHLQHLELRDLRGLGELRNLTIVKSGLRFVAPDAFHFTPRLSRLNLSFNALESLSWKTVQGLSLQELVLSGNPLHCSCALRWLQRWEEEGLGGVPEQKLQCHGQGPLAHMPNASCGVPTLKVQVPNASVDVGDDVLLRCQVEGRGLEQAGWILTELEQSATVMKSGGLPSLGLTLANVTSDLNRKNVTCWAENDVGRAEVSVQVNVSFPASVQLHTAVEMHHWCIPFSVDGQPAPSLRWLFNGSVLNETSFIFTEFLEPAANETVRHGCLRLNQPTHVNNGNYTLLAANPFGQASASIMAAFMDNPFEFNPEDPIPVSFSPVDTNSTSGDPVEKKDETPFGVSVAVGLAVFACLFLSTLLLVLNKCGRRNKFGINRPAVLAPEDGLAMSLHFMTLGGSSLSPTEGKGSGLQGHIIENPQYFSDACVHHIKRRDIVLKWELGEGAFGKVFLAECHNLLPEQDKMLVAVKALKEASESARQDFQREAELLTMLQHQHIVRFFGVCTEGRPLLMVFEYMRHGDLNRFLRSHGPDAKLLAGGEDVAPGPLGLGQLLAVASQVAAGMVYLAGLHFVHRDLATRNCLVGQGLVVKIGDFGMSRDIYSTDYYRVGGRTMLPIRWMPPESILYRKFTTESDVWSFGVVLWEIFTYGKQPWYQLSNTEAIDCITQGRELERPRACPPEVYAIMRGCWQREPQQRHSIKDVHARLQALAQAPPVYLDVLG
T2 sequence (P04629 33-423): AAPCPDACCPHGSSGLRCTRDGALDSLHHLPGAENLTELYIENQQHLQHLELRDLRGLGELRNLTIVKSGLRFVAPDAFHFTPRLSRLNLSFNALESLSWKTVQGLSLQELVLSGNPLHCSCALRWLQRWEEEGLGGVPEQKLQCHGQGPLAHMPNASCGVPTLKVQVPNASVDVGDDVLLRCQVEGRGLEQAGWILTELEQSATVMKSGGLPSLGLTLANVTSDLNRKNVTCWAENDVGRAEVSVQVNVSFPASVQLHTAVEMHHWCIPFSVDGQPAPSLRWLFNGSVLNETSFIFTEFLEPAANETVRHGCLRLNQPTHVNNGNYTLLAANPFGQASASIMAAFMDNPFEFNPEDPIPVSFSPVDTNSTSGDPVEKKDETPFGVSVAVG

B1: PHD49-01 (humanized muPHD49) (antibody, human IgG4, V domains shown)
VH: QVQLVQSGAEVKKPGSSVKVSCKASGYTFSSYWMQWVRQAPGQGLEWIGAIYPGDDDTIYTQKFKGRATLTADKSTSTAYMELSSLRSEDTAVYYCARNYDYQAWFAYWGQGTLVTVSS
VL: DIQMTQSPSSLSASVGDRVTITCSASSSVSYMYWYQQKPGKAPKPWIYLTSNLASGVPSRFSGSGSGTDYTLTISSLQPEDFATYYCQQWSSNPLTFGQGTKLEIK
B1 showed an EC50 [1] of about 0.198 µg/mL, a Kd [2] of 4.84 nM and a koff [2] of 0.00098 s⁻¹. For the same binder, the kon [2] was 203000 M⁻¹ s⁻¹, the “Top; inhibition of NGF-induced TrkA activation in TrkA-NFAT-bla CHO-K1 reporter cells” value (from here on “Top; inhibition”) [3] was 1.1 Response Ratio and the “IC50 in NFAT assay” value [4] was about 0.604 nM.

B2: PHD49-21 (antibody, V domains shown)
VH: QVQLVQSGAEVKKPGSSVKVSCKASGFTFSSYWIQWVRQAPGQGLEWIGAIYTGDGDTIYTQKFQGRATITTDESTSTAYMELSSLRSEDTAVYYCARNYHYQAWFDYWGQGTLVTVSS
VL: DIQMTQSPSSLSASVGDRVTITCRASSSVSYLYWYQQKPGKAPKPLIYLTSDLASGVPSRFSGSGSGTDYTLTISSLQPEDFATYYCQQWSSNPLTFGQGTKLEIK
In the case of B2, the “NFAT IC50” value [5] is reported as 124 nM, the Kd [6] is reported as 0.259 nM and the koff [6] is reported as 9.51e-05 s⁻¹. It also gave a kon [6] of 367000 M⁻¹ s⁻¹.

B3: PHD48-01 (humanized muPHD48) (antibody, human IgG4, V domains shown)
VH: QVQLVQSGAEVKKPGASVKVSCKASGYSFTTYWMHWVRQAPGQGLEWIGTIYPGNSDSSNNQKFKGRATLTADTSTSTAYMELSSLRSEDTAVYYCTRFYYEDWYFDVWGQGTMVTVSS
VL: DIQMTQSPSSLSASVGDRVTITCSASSSVSYMYWFQQKPGKAPKPWIYRTSNLASGVPSRFSGSGSGTDYTLTISSLQPEDFATYYCQQYHSYPPTFGGGTKVEIK
Work on B3 yielded an EC50 [7] of about 0.142 µg/mL, a Kd [2] of 3.07 nM and a koff [2] of 0.000634 s⁻¹. The kon [2] was 207000 M⁻¹ s⁻¹, the “Top; inhibition” value [8] was 1.02 Response Ratio and the Kd [9] was 3.07 nM. It also gave a koff [9] of 0.000634 s⁻¹, a kon [9] of 207000 M⁻¹ s⁻¹ and a Kd [10] of 2.34 nM. For the same binder, the koff [10] was 0.000524 s⁻¹, the kon [10] was 224000 M⁻¹ s⁻¹ and the “IC50 in NFAT antagonistic assay” value [4] was about 0.345 nM.

B4: muPHD48 (antibody, V domains shown)
VH: EVQLQQSGTVLARPGASVKMSCKASGYSFTTYWMHWVKQRPGQGLEWIGTIYPGNSDSSNNQKFKGKAKLTAVTSASTAYMELSSLTNEDSAVYYCTRFYYEDWYFDVWGAGTTVTVSS
VL: QIVLTQSPAIMSASPGEKVTISCSASSSVSYMYWFQQKPGSSPKPWIYRTSNLASGVPARFSGSGSGTSYSLTISSMEAEDAATYYCQQYHSYPPTFGGGTKLEIK
notes: Mouse hybridoma monoclonal antibody
B4 was tested, and the EC50 [11] was 0.37 nM, the Top [11] was 2.16 OD450 and the “Top; inhibition” value [8] was 0.862 Response Ratio. The EC50 [12] was 0.341 µg/mL, the Top [13] was 239000 and the “IC50 in NFAT antagonistic assay” value [4] was 0.411 nM.

B5: muPHD49 (antibody, V domains shown)
VH: QVQLQQSGAELARPGASVKLSCKASGYTFSSYWMQWVKQRPGQGLEWIGAIYPGDDDTIYTQKFKGKATLTADKSSSTAYMQLSSLASEDSAVYYCARNYDYQAWFAYWGQGTLVTVSA
VL: QIVLTQSPALMSASPGEKVTMTCSASSSVSYMYWYQQKPRSSPKPWIYLTSNLASGVPARFSGSGSGTSYSLTISSMEAEDAATYYCQQWSSNPLTFGAGTKLELK
notes: Mouse hybridoma monoclonal antibody; also called muPHID49
Binder B5 has an EC50 [11] of 1.07 nM, a Top [11] of 1.94 OD450 and an EC50 [12] of 0.473 µg/mL. The Top [13] was 173000, the “Top; inhibition” value [3] was 0.796 Response Ratio and the “IC50 in NFAT assay” value [4] was 0.404 nM.

B6: chi-PHD48 (the chimeric antibody derived from muPHD48) (antibody, V domains shown)
VH: EVQLQQSGTVLARPGASVKMSCKASGYSFTTYWMHWVKQRPGQGLEWIGTIYPGNSDSSNNQKFKGKAKLTAVTSASTAYMELSSLTNEDSAVYYCTRFYYEDWYFDVWGAGTTVTVSS
VL: QIVLTQSPAIMSASPGEKVTISCSASSSVSYMYWFQQKPGSSPKPWIYRTSNLASGVPARFSGSGSGTSYSLTISSMEAEDAATYYCQQYHSYPPTFGGGTKLEIK
notes: Chimeric: VH in the pCDNA3.4-hIgG4 vector and VL in the pCDNA3.4-hKappa vector (human IgG4 / human kappa constant regions)
Work on B6 yielded an EC50 [7] of 0.112 µg/mL, a Kd [2] of 5.33 nM and a koff [2] of 0.00114 s⁻¹. The kon [2] was 214000 M⁻¹ s⁻¹, the “IC50; inhibition of NGF-induced TrkA activation in TrkA-NFAT-bla CHO-K1 reporter cells” value [8] was 1.12 nM and the “Top; inhibition” value [8] was 1.1 Response Ratio. It also gave a Kd [9] of 2.8 nM, a koff [9] of 0.000761 s⁻¹ and a kon [9] of 272000 M⁻¹ s⁻¹. For the same binder, the Kd [10] was 4.06 nM, the koff [10] was 0.00069 s⁻¹ and the kon [10] was 170000 M⁻¹ s⁻¹.

B7: muPHD50 (antibody, V domains shown)
VH: EVQLQQSGTVLARPGASVKMSCKASGYIFTSYWMHWVKQRPGQGLEWIGAIYPGDSDTNYNQKFKGKAKLTAVTSASTAYMELSSLTNEDSAVYYCTRYGNYAGYYHMDYWGQGTSVTVSS
VL: QIVLTQSPALMSASPGEKVTMTCSASSSVSYIYWYQQKPRSSPKPWIYLTSNLASGVPARFSGSGSGTSYSLTISSMEAEDAATYYCQQWSSNPLTFGAGTKLELK
notes: Mouse hybridoma monoclonal antibody; also called muPHID50
B7 was tested, and the EC50 [11] was 0.428 nM, the Top [11] was 1.65 OD450 and the EC50 [12] was 0.326 µg/mL. The Top [13] was 268000.

B8: control antibody pAb01 (antibody, V domains shown)
VH: EVQLVESGGGLVKPGGSLRLSCAASGFTFSGVSINWVRQAPGKGLEWVSSETTSSGTIYYADSVKGRFTISRDNAKNSLYLQMNSLRAEDTAVYYCARSYYYGMDVWGQGTTVTVS
VL: DIVMTQTPLSSPVTLGQPASISCRSSQSLVHRNGNTYLSWLQQRPGQPPRLLIYKISNRFSGVPDRFSGSGAGTDFTLKISRVEAEDVGVYYCMQARQFPLTFGGGTKVEIK
B8: binds [14].
